The target in experiment [1] is T1, human IL-11 (human, UniProt P20809 22-199).
T1 sequence: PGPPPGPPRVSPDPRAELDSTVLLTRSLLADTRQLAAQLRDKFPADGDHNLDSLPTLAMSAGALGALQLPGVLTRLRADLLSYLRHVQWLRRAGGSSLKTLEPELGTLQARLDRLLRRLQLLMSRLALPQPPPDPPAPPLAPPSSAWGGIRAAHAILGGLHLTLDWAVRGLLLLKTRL
Nature of the experiment: cell-based or functional assay.

Experiment [2] has as its target T2, murine IL-11 (mouse, UniProt P47873 22-199).
T2 sequence: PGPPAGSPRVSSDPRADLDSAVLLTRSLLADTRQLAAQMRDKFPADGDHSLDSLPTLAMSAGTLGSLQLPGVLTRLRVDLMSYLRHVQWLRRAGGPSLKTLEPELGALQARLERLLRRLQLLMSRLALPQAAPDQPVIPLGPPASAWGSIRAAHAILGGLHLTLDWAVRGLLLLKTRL
The experiment can be described thus: cell-based or functional assay.

Experiment [3] deals with T1, human IL-11. Nature of the experiment: cell-based or functional assay. The source holds these as a separate data set.
Experiment [4] has as its target T2, murine IL-11. Nature of the experiment: cell-based or functional assay. The source holds these as a separate data set.
For experiment [5], the target named is T1, human IL-11. Nature of the experiment: SPR; limit told of 12 single-site germlining mutants; antigen not given, SPR run on human and mouse IL-11. For orientation: In SPR one partner is held on a chip, and binding of the other changes the refractive index at the surface.
In experiment [6] the target is T2, murine IL-11. The description is as above.

Where a chain is given by its changes, count along the chain named. A value given as a limit tells only on which side of the number the result lay.

The values that follow come from patent US20240317847A1 (Bayer, published 2024).

B1: TPP-31293 (antibody, IgG4, V domains shown)
VH: EVQLLESGGGLVQPGGSLRLSCAASGFTFSHYDMNWVRQAPGKGLEWVGVISYDGSNKFYADFVKGRFTISRDNSKNTLYLQMNSLRAEDTAVYYCARTPGSHFDYWGQGTLVTVSS
VL: QSVLTQPPSASGTPGQRVTISCSGSSSNIGNNAVNWYQQLPGTAPKLLIYYDDLLPSGVPDRFSGSKSGTSASLAISGLRSEDEADYYCSAWDDSLNGVVFGGGTKLTVL
notes: hIgG4 SPLE, lambda
The Kd is the concentration at which binding is half-saturated. Low readings indicate higher affinity, high ones lower affinity. Take B1: the “RGA potency (mean)” value in experiment [1] and in experiment [2] was below 170 nM each time. In addition, the “IC50, RGA 1” value turned out to be 58 nM in experiment [3] and 31 nM in experiment [4]. Also, the “IC50, RGA 2” value in experiment [3] and in experiment [4] was 13 nM each time. Moreover, the Kd in experiment [5] and in experiment [6] was below 19 nM throughout.

B2: TPP-31277 (antibody, IgG4, V domains shown)
VH: B1 VH with V37L
VL: B1 VL with N31S
notes: hIgG4 SPLE, lambda
For the molecule B2, the “RGA potency (mean)” value in experiment [1] and in experiment [2] was below 170 nM each time. For the same molecule, the “IC50, RGA 1” value in experiment [3] turned out to be 211 nM; in experiment [4] it was 43 nM. Further, the “IC50, RGA 2” value in experiment [3] was found to be 47 nM; in experiment [4], 27 nM. In addition, the dissociation constant (Kd) in experiment [5] and in experiment [6] was below 19 nM throughout.

B3: TPP-31278 (antibody, IgG4, V domains shown)
VH: B1 VH with V37L
VL: B1 VL with A33Y
notes: hIgG4 SPLE, lambda
Turning to B3, the “RGA potency (mean)” value in experiment [1] and in experiment [2] was below 170 nM throughout. Moreover, the figures for the “IC50, RGA 1” value in experiment [3] and in experiment [4] were 22 nM and 0.13 nM, respectively. Besides, the “IC50, RGA 2” value was found to be 2.36 nM in experiment [3] and 0.08 nM in experiment [4]. The dissociation constant Kd in experiment [5] and in experiment [6] was below 19 nM throughout.

B4: TPP-31294 (antibody, IgG4, V domains shown)
VH: B1 VH with V37L, G49A
VL: B1 VL
notes: hIgG4 SPLE, lambda
Consider B4, for which the “RGA potency (mean)” value in experiment [1] and in experiment [2] was below 170 nM throughout. For the same molecule, the entries for the “IC50, RGA 1” value in experiment [3] and in experiment [4] were 96 nM and 41 nM, respectively. For the same molecule, the “IC50, RGA 2” value in experiment [3] worked out at 38 nM; in experiment [4], 28 nM. Moreover, the Kd in experiment [5] and in experiment [6] was below 19 nM throughout.

B5: TPP-31285 (antibody, IgG4, V domains shown)
VH: B1 VH with V37L
VL: B1 VL with S90A
notes: hIgG4 SPLE, lambda
On to B5, for which the “RGA potency (mean)” value in experiment [1] and in experiment [2] was below 170 nM throughout. The “IC50, RGA 1” value in experiment [3] was 50 nM; in experiment [4], 111 nM. The figures for the “IC50, RGA 2” value in experiment [3] and in experiment [4] were 16 nM and 23 nM, respectively. The Kd in experiment [5] and in experiment [6] was below 19 nM throughout.

B6: TPP-31296 (antibody, IgG4, V domains shown)
VH: B1 VH with V37L, F63S
VL: B1 VL
notes: hIgG4 SPLE, lambda
On to B6, for which the “RGA potency (mean)” value in experiment [1] and in experiment [2] was below 170 nM in each case. Also, the “IC50, RGA 1” value is 46 nM in experiment [3] and 20 nM in experiment [4]. Further, the results for the “IC50, RGA 2” value in experiment [3] and in experiment [4] were 158 nM and 22 nM, respectively. Moreover, the Kd in experiment [5] and in experiment [6] was below 19 nM throughout.

B7: TPP-31292 (antibody, IgG4, V domains shown)
VH: B1 VH with N35H, V37L
VL: B1 VL
notes: hIgG4 SPLE, lambda
Take B7: the “RGA potency (mean)” value in experiment [1] and in experiment [2] was below 170 nM throughout. The “IC50, RGA 1” value in experiment [3] came out at 234 nM; in experiment [4] it was 52 nM. The entries for the “IC50, RGA 2” value in experiment [3] and in experiment [4] were 107 nM and 39 nM, respectively. Further, the Kd in experiment [5] and in experiment [6] was below 19 nM each time.

B8: TPP-31284 (antibody, IgG4, V domains shown)
VH: B1 VH with V37L
VL: B1 VL with L55R
notes: hIgG4 SPLE, lambda
On to B8, for which the “RGA potency (mean)” value in experiment [1] and in experiment [2] was below 170 nM each time. Besides, the “IC50, RGA 1” value came out at 101 nM in experiment [3] and 65 nM in experiment [4]. Moreover, the results for the “IC50, RGA 2” value in experiment [3] and in experiment [4] were 131 nM and 17 nM, respectively. Moreover, the Kd in experiment [5] and in experiment [6] was below 19 nM each time.
